# Results taken from patent US20110189205A1.
# Experiments:
# [1] = biological target: CGRP receptor on human MDA-MB-231BR breast cancer cells (human) (UniProt Q16602); assay: cell-based or functional assay
# [2] = biological target: CGRP receptor on rat CNS1 glioma cells (rat) (UniProt Q63118); assay: cell-based or functional assay
# Chain of CGRP receptor on rat CNS1 glioma cells (rat) (Q63118 24-464, chain 1 of 2): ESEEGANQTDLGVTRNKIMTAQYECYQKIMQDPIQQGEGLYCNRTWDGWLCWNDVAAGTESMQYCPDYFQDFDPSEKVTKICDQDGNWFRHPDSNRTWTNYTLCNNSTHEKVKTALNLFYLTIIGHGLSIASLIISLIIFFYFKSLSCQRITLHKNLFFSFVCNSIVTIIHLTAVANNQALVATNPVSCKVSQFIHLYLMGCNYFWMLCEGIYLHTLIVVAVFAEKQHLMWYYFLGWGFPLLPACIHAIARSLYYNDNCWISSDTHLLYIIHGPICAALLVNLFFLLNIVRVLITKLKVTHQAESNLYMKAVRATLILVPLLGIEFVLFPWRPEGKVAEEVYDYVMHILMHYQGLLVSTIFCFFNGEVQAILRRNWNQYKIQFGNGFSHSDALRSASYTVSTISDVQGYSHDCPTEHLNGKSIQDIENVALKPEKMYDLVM
# Chain of CGRP receptor on rat CNS1 glioma cells (rat) (Q9JJ74 27-148, chain 2 of 2, further chain): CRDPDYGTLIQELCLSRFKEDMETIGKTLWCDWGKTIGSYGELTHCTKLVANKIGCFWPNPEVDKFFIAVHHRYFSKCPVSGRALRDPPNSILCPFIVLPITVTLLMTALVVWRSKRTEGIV
# Chain of CGRP receptor on human MDA-MB-231BR breast cancer cells (human) (Q16602 23-461, chain 1 of 2): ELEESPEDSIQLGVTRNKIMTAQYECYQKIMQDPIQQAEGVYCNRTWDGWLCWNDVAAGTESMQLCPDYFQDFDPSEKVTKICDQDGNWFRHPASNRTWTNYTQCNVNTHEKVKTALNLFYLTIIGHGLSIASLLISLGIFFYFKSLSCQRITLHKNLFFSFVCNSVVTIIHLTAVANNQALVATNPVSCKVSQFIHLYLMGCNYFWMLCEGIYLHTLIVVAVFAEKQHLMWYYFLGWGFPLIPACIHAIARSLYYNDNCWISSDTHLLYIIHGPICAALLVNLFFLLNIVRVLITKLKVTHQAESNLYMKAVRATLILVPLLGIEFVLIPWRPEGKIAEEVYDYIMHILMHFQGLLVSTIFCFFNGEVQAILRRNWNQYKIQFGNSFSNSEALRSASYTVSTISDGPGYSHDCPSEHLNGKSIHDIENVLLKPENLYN
# Chain of CGRP receptor on human MDA-MB-231BR breast cancer cells (human) (O60894 27-148, chain 2 of 2, further chain): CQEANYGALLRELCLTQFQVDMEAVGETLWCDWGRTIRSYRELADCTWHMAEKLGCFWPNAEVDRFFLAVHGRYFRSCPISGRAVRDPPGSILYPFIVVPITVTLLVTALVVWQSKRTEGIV
substance,measurement,setting,value
"calcitonin gene-related peptide (CGRP), unlabeled (from UniProt P01256 83-119)","MDA-MB-231BR cell growth over control, normoxic conditions, 4 days in culture",[1],6 fold
same,"CNS1 cell growth over control, normoxic conditions, 4 days in culture",[2],4 fold
same,"CNS1 cell growth over control, normoxic conditions, 5 days in culture",[2],11 fold
same,"CNS1 glioma growth over control, hypoxic conditions, 4 days in culture",[2],72 fold
same,"CNS1 glioma growth over control, hypoxic conditions, 5 days in culture",[2],10 fold
